Like-named read-outs stand apart in the source and are kept apart here. One block for each binder: values may come before it.
Key:
[1] = biological target: T1, human TIGIT expressed on cells (human, UniProt Q495A1 22-244); experiment: cell-based or functional assay
T1 sequence (looked up): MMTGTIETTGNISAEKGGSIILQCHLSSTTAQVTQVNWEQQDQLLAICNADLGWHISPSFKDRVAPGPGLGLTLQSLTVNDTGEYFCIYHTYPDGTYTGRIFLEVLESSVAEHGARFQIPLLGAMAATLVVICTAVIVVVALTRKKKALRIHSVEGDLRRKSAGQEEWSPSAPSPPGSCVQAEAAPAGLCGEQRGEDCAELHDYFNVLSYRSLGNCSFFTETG

[2] = biological target: T1, human TIGIT expressed on cells; experiment: flow cytometry, competition with CD155-His (5 ug/ml) on Jurkat-hTIGIT
[3] = biological target: T1, human TIGIT expressed on cells; experiment: flow cytometry, 100 nM Ab, Jurkat-hTIGIT vs untransfected
Description: (§1) Antibodies were incubated with the cells for 20 min at 4° C. in FACS buffer. […] Geometric mean fluorecence intensity was analysed using LSR BD Fortessa. Cell binding was recorded as the median florescence intensity of PE on the transfected line compared to the un-transfected line for each antibody (Table 3).

[4] = biological target: T1, human TIGIT expressed on cells; experiment: cell-based or functional assay; remark: listed apart in the source
Human TIGIT-His [5] = biological target: T2, Human TIGIT-His (human, UniProt Q495A1 22-141, biotinylated in the ForteBio Fab assay); experiment: MSD-SET, monovalent (Fab or mAb titrated, not said which)
T2 construct: bought (Creative Biomart); also called Biotinylated Human TIGIT HIS; TIGIT-His monomer; not shown: His tag
T2 sequence (looked up): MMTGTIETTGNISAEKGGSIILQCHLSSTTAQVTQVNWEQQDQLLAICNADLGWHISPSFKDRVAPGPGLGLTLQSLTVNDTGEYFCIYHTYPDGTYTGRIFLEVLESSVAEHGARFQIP
Description: (§2) Briefly, solution equilibrium titrations (SET) were performed in PBS+0.1% IgG-Free BSA (PBSF) with antigen (TIGIT-His monomer) held constant at 10-100 pM and incubated with 3- to 5-fold serial dilutions of Fab or mAbs starting at 10 pM-10 nM. Antibodies (20 nM in PBS) were coated onto standard bind MSD-ECL plates overnight at 4° C. or at room temperature for 30 min. Plates were then blocked by BSA for 30 min with shaking at 700 rpm, followed by three washes with wash buffer (PBSF+0.05% Tween 20). SET samples were applied and incubated on the plates for 150s with shaking at 700 rpm followed by one wash. Antigen captured on a plate was detected with 250 ng/mL sulfotag-labeled streptavidin in PBSF by incubation on the plate for 3 min. The plates were washed three times with wash buffer and then read on the MSD Sector Imager 2400 instrument using 1× Read Buffer T with surfactant. The percent free antigen was plotted as a function of titrated antibody in Prism and fit to a quadratic equation to extract the KD. To improve throughput, liquid handling robots were used throughout MSD-SET experiments, including SET sample preparation.

[6] = biological target: T3, mouse TIGIT expressed on cells (mouse, UniProt P86176 29-249); experiment: flow cytometry, 100 nM Ab, Jurkat-mTIGIT vs untransfected
T3 construct: whole, on cells; on Jurkat cells engineered to express mouse TIGIT; also called mTIGIT; Jurkat-mTIGIT
T3 sequence (looked up): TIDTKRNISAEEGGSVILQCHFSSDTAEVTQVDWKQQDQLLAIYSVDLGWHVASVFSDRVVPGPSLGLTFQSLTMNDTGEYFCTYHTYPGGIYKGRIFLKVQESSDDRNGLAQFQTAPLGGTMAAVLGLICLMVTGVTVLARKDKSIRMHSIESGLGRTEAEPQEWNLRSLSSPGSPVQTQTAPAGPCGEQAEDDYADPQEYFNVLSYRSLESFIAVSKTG
Description: as §1

Human TIGIT-His [7] = biological target: T2, Human TIGIT-His; experiment: MSD-SET, monovalent (Fab or mAb titrated, not said which); remark: listed apart in the source
Description: as §2

Human TIGIT-Fc = biological target: T4, Human TIGIT-Fc (human, UniProt Q495A1 22-141); experiment: ForteBio BLI, IgG KD, avid
T4 construct: bought (Creative Biomart); also called TIGIT-Fc antigen; TIGIT-Fc fusion antigen; not shown: Fc part
T4 sequence (looked up): T2 sequence (looked up)
Description: Briefly, ForteBio affinity measurements were performed by loading IgGs on-line onto AHQ sensors. Sensors were equilibrated off-line in assay buffer for 30 min and then monitored on-line for 60 seconds for baseline establishment. Sensors with loaded IgGs were exposed to 100 nM antigen (human TIGIT-Fc, human TIGIT-His or cyno TIGIT-Fc) for 5 minutes, afterwards they were transferred to assay buffer for 5 min for off-rate measurement. Kinetics were analyzed using the 1:1 binding model.

[8] = biological target: T1, human TIGIT expressed on cells; experiment: flow cytometry, primary CD8+ T cells of cancer patients' PBMC, MFI
Description: Cells were distributed at 1×10^5 cells per well. […] Then, cells were washed and incubated with the following antibodies and life viability dye (LVD) mix: anti-CD4-PercP-Cy5.5 (clone A161A1, BioLegend 357414); anti-CD8-BV510 (clone SK1, BD Bioscience 563919) and LVD efluor 520 (eBioscience 65-0867-14). Cells were washed and fixed and surface staining was quantified using BD LSR Fortessa. Flow cytometry data was analysed using FlowJo V10.1. TIGIT MFI on gated LVD-TIGIT+CD8+ cells was used to calculate EC50 values.

[9] = biological target: T5, recombinant human TIGIT protein (construct not stated) (human, UniProt Q495A1 22-141, limits assumed); experiment: Biacore T200, IgG captured by anti-human Fc, antigen in solution, 1:1 kinetic model
T5 construct: also called hTIGIT (Creative Biomart); recombinant TIGIT protein
T5 sequence (looked up): T2 sequence (looked up)
Description: Biosensor analysis was conducted at 25° C. in a HBS-EP buffer system (10 mM HEPES pH 7.3, 150 mM NaCl, 3 mM EDTA, 0.05% Tween20) using Biacore T200 technology, CMS sensor chip (run at Novalix, France). The sample hotel was maintained at 8° C. Goat anti-human IgG capture antibody (Fcγ fragment specific, Jackson ImmunoResearch Laboratories) was immobilized (10000 RU) to both flow cells of the sensor chip using standard amine coupling chemistry. This surface type provided a format for reproducibly capturing fresh analysis antibody after each regeneration step. Flow cell 2 was used to analyse captured antibody while flow cell 1 was used as a reference flow cell. […] Two blank (buffer) injections also were run and used to assess and subtract system artefacts. The association (300 s) and dissociation (600 s) phases for all antigen concentrations were performed at a flow rate of 30 uL/min. The surface was regenerated with three sequential injections (15 s, 15 s and 60 s) of 10 mM glycine-HCl, pH 1.5. The obtained sensorgrams were fitted globally to a 1:1 model (assuming the same kinetic values for all applied concentrations).

[10] = biological target: T1, human TIGIT expressed on cells; experiment: flow cytometry, competition with CD155-His (15 ug/ml) on Jurkat-hTIGIT
[11] = biological target: T1, human TIGIT expressed on cells; experiment: flow cytometry, primary CD8+ T cells of healthy human PBMC, MFI
Description: Isolated human PBMCs from healthy volunteers were analysed for binding by antagonist anti-TIGIT antibodies. Cells were distributed at 1×10⁵ cells per well. Cells were incubated with anti-CD16 (Clone 3G8, BioLegend 302002), CD32 (Clone FLI8.26, BD Bioscience 557333) and CD64 (BD Bioscience 555525) at room temperature for 10 min, and the indicated anti-human TIGIT antibody clones were directly added at a final concentration of 8; 4; 2; 1; 0.5; 0.25; 0.125; 0.062; 0.031; 0.016; 8×10⁻³ and 4×10⁻³ nM in FACS buffer and incubated for 20 min at 4° C. […] Then, cells were washed and incubated with the following antibodies and LVD mix: anti-CD4-PercP-Cy5.5 (clone A161A1, BioLegend 357414); anti-CD8-BV510 (clone SK1, BD Bioscience 563919) and LVD efluor 660 (eBioscience 65-0864-18).
The EC50 values for binding to CD8+ human primary T cells were calculated using the MFI signal on living TIGIT+CD8+ T cells.

[12] = biological target: T1, human TIGIT expressed on cells; experiment: cell-based or functional assay; remark: listed apart in the source
[13] = biological target: T1, human TIGIT expressed on cells; experiment: flow cytometry on Jurkat-hTIGIT
Description: Antibodies were incubated with the cells for 20 min at 4° C. in FACS buffer. […] Fluorescence intensity was analysed using LSR BD Fortessa and cell binding was recorded as the median fluorescence intensity of PE in cells expressing TIGIT at their surface.
The half-maximal concentration of binding (EC50) to Jurkat-hTIGIT was calculated using a four-variable curve-fit equation in Prism.

[14] = biological target: T1, human TIGIT expressed on cells; experiment: cell-based or functional assay; remark: listed apart in the source

increase of IFNg secretion over isotype control, human primary CD8+ T cells + CHO-TCR-CD155 [1]: 5.2 fold | IC50 [2]: 0.103 nM | FON (Fold Over Negative) [3]: 164 fold | Induction over Isotype control (fold change), luciferase, Jurkat-hTIGIT + CHO-TCR-CD155, 133 nM [4]: 3.68 fold | Kd (Human TIGIT-His [5]): 0.019 nM | FON (Fold Over Negative) [6]: 541 fold | Kd (Human TIGIT-His [7]): 0.019 nM | Kd (Human TIGIT-Fc): 0.319 nM
B1: anti-TIGIT antibody clone 29499 (IgG) (antibody, V domains shown)
VH: QLQLQESGPGLVKPSETLSLTCTVSGGSISSSRYYWAWIRQPPGKGLEWIGSIGTSGSTYYNPSLKSRVTISVDTSKNQFSLKLSSVTATDTAVYYCAIEGANFRDFGYVAFDIWGQGTMVTVSS
VL: EIVMTQSPATLSVSPGERATLSCRASQSVSSNLAWYQQKPGQAPRLLIYGASTRATGIPARFSGSGSGTEFTLTISSLQSEDFAVYYCQQSPPWPRTFGGGTKVEIK

EC50 [8]: 0.18 nM | Fold change of EC50 over EC50 of best clone (31282) [8]: 1.5 fold | Kd [9]: 0.067 nM | koff [9]: 0.000209 s⁻¹ | Fold change of IC50 over IC50 of best clone (31282_up) [10]: 1.7 fold | IC50 [10]: 0.07 nM | EC50 [11]: 0.39 nM | Fold change of EC50 over EC50 of best clone (31282_wu) [11]: 2 fold | EC50 (nM), IFNg, human primary CD8+ T cells [12]: 0.3 nM | Fold change of EC50 over EC50 of best clone (31282_wu) [12]: 2.3 fold | Induction over isotype control (fold change), IFNg, human primary CD8+ T cells + CD155 aAPC/CHO-K1 [12]: 1.6 fold | EC50 [13]: 0.13 nM | Fold change of EC50 over EC50 of best clone (31282_wu) [13]: 1.2 fold | EC50 (nM), luciferase, Jurkat-hTIGIT [14]: 5.3 nM | Fold change of EC50 over EC50 of best clone (31282_up) [14]: 1.6 fold | Induction over Isotype control (fold change), luciferase, Jurkat-hTIGIT + CD155 aAPC/CHO-K1 [14]: 6.7 fold
B2: 31C6 (MEB125.31C6.A1.205 VH4/VL1; comparative anti-TIGIT antibody, human IgG1) (antibody, V domains shown)
VH: EVQLVQSGAEVKKPGASVKVSCKASGYTFSSYVMHWVRQAPGQGLEWIGYIDPYNDGAKYAQKFQGRVTLTSDKSTSTVYMELSSLRSEDTAVYYCARGGPYGWYFDVWGQGTTVTVSS
VL: DIQMTQSPSSLSASVGDRVTITCRASEHIYSYLSWYQQKPGKAPKLLIYNAKTLAEGVPSRFSGSGSGTDFTLTISSLQPEDFATYYCQHHFGSPLTFGQGTRLEIK
notes: from WO2016/028656; made in HEK cells as human IgG1; also called 3106 (as the text prints it)

increase of IFNg secretion over isotype control, human primary CD8+ T cells + CHO-TCR-CD155 [1]: 3.2 fold | IC50 [2]: 0.094 nM | FON (Fold Over Negative) [3]: 156 fold | Induction over Isotype control (fold change), luciferase, Jurkat-hTIGIT + CHO-TCR-CD155, 133 nM [4]: 3.26 fold | Kd (Human TIGIT-His [5]): 0.025 nM | FON (Fold Over Negative) [6]: 406 fold | Kd (Human TIGIT-His [7]): 0.025 nM | Kd (Human TIGIT-Fc): 0.392 nM
B3: anti-TIGIT antibody clone 29513 (IgG) (antibody, V domains shown)
VH: QVQLVQSGAEVKKPGSSVKVSCKASGGTFQNYAISWVRQAPGQGLEWMGVIVPIFGTANYAQKFQGRVTVTADESTSTAYMELSSLRSEDTAVYYCARLHLGQKAYYGMDVWGQGTTVTVSS
VL: DIQMTQSPSSLSASVGDRVTITCRASQSISSYLNWYQQKPGKAPKLLIYAASSLQSGVPSRFSGSGSGTDFTLTISSLQPEDFATYYCQQRYVFPPTFGGGTKVEIK

IC50 [2]: 0.079 nM | FON (Fold Over Negative) [3]: 150 fold | Induction over Isotype control (fold change), luciferase, Jurkat-hTIGIT + CHO-TCR-CD155, 133 nM [4]: 2.4 fold | Kd (Human TIGIT-His [5]): 1.7 nM | FON (Fold Over Negative) [6]: 502 fold | Kd (Human TIGIT-His [7]): 1.7 nM | Kd (Human TIGIT-Fc): 0.531 nM
B4: anti-TIGIT antibody clone 29523 (IgG) (antibody, V domains shown)
VH: EVQLVESGGGVVQPGRSLRLSCAASGFTFGSYYMHWVRQAPGKGLEWVAVIWPDGSNKLYADSVKGRFTISRDNSKNTLYLQMNSLRAEDTALYYCAKPVPKSRALDVWGQGTMVTVSS
VL: DIQLTQSPSSVSASVGDRVTITCRASQGISSWLAWYQQKPGKAPKLLIYGASSLQSGVPSRFSGSGSGTDFTLTISSLQPEDFATYYCQQAFYLPWTFGGGTKVEIK
